Results reported in paper PMC12240383, “Human herpesvirus 6B glycoprotein B postfusion structure, vulnerability mapping, and receptor recognition” (PLOS Pathogens, 2025).

T1: HHV-6B gB ectodomain (residues 1-680, strain Z29) with fusion loop substitutions, C-terminal Flag-tag (Human herpesvirus 6B (strain Z29), UniProt P36320 20-680, VGVV102-105 to HRTT | WLY187-189 to ATH)
T1 construct: signal peptide in the construct (predicted signal peptide residues 1-19); glycoprotein B of human herpesvirus 6B strain Z29, ectodomain residues 1-680; Same ectodomain as m1 (a trimer in the structure) with a Flag-tag instead of the His-tag; also called HHV-6B gB-Flag; wild-type HHV-6B gB-Flag; source: Expi293F, transiently transfected, purified from supernatant (Flag beads, 3xFlag peptide …)
T1 sequence: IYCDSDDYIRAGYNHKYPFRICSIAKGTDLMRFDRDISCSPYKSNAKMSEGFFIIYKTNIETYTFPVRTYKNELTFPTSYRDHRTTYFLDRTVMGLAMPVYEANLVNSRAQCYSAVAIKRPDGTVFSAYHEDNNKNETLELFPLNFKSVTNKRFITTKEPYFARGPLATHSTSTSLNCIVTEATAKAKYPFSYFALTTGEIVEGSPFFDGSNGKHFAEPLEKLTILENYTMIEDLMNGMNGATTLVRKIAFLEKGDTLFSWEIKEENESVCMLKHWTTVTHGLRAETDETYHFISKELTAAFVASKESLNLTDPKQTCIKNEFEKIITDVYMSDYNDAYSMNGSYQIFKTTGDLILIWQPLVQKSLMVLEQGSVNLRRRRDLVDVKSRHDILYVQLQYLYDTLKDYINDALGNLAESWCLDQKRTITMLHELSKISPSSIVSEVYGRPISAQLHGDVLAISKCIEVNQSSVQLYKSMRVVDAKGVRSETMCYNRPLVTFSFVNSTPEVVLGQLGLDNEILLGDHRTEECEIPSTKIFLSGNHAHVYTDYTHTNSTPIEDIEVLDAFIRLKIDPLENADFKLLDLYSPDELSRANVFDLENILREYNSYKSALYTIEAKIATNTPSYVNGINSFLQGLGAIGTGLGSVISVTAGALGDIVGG

B1: HHV-6B gB ectodomain (residues 1-680, strain Z29) with fusion loop substitutions, C-terminal His-tag (domain or fragment)
chain: IYCDSDDYIRAGYNHKYPFRICSIAKGTDLMRFDRDISCSPYKSNAKMSEGFFIIYKTNIETYTFPVRTYKNELTFPTSYRDHRTTYFLDRTVMGLAMPVYEANLVNSRAQCYSAVAIKRPDGTVFSAYHEDNNKNETLELFPLNFKSVTNKRFITTKEPYFARGPLATHSTSTSLNCIVTEATAKAKYPFSYFALTTGEIVEGSPFFDGSNGKHFAEPLEKLTILENYTMIEDLMNGMNGATTLVRKIAFLEKGDTLFSWEIKEENESVCMLKHWTTVTHGLRAETDETYHFISKELTAAFVASKESLNLTDPKQTCIKNEFEKIITDVYMSDYNDAYSMNGSYQIFKTTGDLILIWQPLVQKSLMVLEQGSVNLRRRRDLVDVKSRHDILYVQLQYLYDTLKDYINDALGNLAESWCLDQKRTITMLHELSKISPSSIVSEVYGRPISAQLHGDVLAISKCIEVNQSSVQLYKSMRVVDAKGVRSETMCYNRPLVTFSFVNSTPEVVLGQLGLDNEILLGDHRTEECEIPSTKIFLSGNHAHVYTDYTHTNSTPIEDIEVLDAFIRLKIDPLENADFKLLDLYSPDELSRANVFDLENILREYNSYKSALYTIEAKIATNTPSYVNGINSFLQGLGAIGTGLGSVISVTAGALGDIVGG
notes: signal peptide in the construct (predicted signal peptide residues 1-19); glycoprotein B of human herpesvirus 6B strain Z29, ectodomain residues 1-680; furin site 396RRRR|D400 not mutated, mostly uncleaved; also called HHV-6B gB-His; HHV-6B gB680-mut; source: Expi293F, transiently transfected, purified from supernatant (Ni Sepharose IMAC, Superdex 200 SEC); not shown: His6, C-terminal, kept
B2: human nectin-2 V-set domain (residues 1-158) fused with the Fc region of human IgG (Fc fusion)
chain: QDVRVQVLPEVRGQLGGTVELPCHLLPPVPGLYISLVTWQRPDAPANHQNVAAFHPKMGPSFPSPKPGSERLSFVSAKQSTGQDTEAELQDATLALHGLTVEDEGNYTCEFATFPKGSVRGMTWLRV
notes: signal peptide in the construct; human nectin cell adhesion molecule 2 (nectin-2), V-set domain, residues 1-158; also called V-set-Fc; source: Expi293F, transiently transfected, purified from supernatant (protein G resin, SEC)

Experiments:
[1] = molecular target: the molecule itself; test: cryo-EM structure; HHV-6B gB-His at 10 mg/ml in PBS with 0.1% DDM; single-particle analysis, C3 symmetry applied, 2.8 Å; postfusion trimer
[2] = molecular target: T1, HHV-6B gB ectodomain (residues 1-680, …); test: co-IP; purified proteins: 4 µg V-set-Fc with 8 µg HHV-6B gB (His- or Flag-tagged), 4°C 2 h, protein G beads overnight at 4°C; six washes in 50 mM HEPES pH 7.4, 150 mM NaCl, 5 mM EDTA, 0.5% NP40; immunoblot with anti-human IgG and anti-His or anti-Flag; details: both partners purified
[3] = molecular target: B1; test: as above; details: both partners purified

Row | Binder | stoichiometry N [1] | binding result [2] | binding result [3]
1 | B1 | 3 |  | 
2 | B2 |  | binds | binds
